Reference: patent US20250026844A1
Several values for one entry are separate records, joined by “and”; a condition that tells them apart may be missing. Equal values may be shown once.

Columns and labels:
[1] = target: human BCMA on cells (human) (UniProt Q02223); experiment: FACS, H929 cells
[2] = target: human BCMA on cells (human) (UniProt Q02223); experiment: FACS, U266 cells
[3] = target: human BCMA on cells (human) (UniProt Q02223); experiment: FACS, H929 cells; remark: listed apart in the source
[4] = target: human BCMA on cells (human) (UniProt Q02223); experiment: FACS, U266 cells; remark: listed apart in the source
[5] = target: human BCMA on cells (human) (UniProt Q02223); experiment: FACS, H929 cells; remark: listed apart in the source
[6] = target: human BCMA on cells (human) (UniProt Q02223); experiment: FACS, U266 cells; remark: listed apart in the source
[7] = target: human BCMA on cells (human) (UniProt Q02223); experiment: FACS, H929 cells; remark: listed apart in the source
[8] = target: human BCMA on cells (human) (UniProt Q02223); experiment: FACS, U266 cells; remark: listed apart in the source
[9] = target: human BCMA on cells (human) (UniProt Q02223); experiment: FACS, Flp-in CHO-human BCMA cells
[10] = target: monkey BCMA on Flp-inCHO cells (monkey); experiment: FACS, Flp-in CHO-monkey BCMA cells
[11] = target: human BCMA-His protein (human) (UniProt Q02223); experiment: ELISA, coated human BCMA-His, antibody 1 nM
human BCMA-His protein (human), sequence (Q02223 1-54 limits assumed): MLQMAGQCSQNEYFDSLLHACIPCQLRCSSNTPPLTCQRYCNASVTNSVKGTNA

[12] = target: human BCMA-His protein (human) (UniProt Q02223); experiment: ELISA, coated human BCMA-His, antibody 10 nM
[13] = target: monkey BCMA-His protein (monkey); experiment: ELISA, coated monkey BCMA-His, antibody 1 nM
monkey BCMA-His protein (monkey), sequence (A0A2K5 entry or part of it limits assumed): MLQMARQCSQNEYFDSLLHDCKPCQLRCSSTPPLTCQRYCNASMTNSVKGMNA

[14] = target: human BCMA-His protein (human) (UniProt Q02223); experiment: ELISA, coated human BCMA-His, antibody 0.1 nM
[15] = target: human BCMA-His protein (human) (UniProt Q02223); experiment: ELISA, coated human BCMA-His, antibody 100 nM
[16] = target: monkey BCMA-His protein (monkey); experiment: ELISA, coated monkey BCMA-His, antibody 10 nM
[17] = target: human BCMA-His protein (human) (UniProt Q02223); experiment: ELISA, coated human BCMA-His, antibody 0.01 nM
[18] = target: monkey BCMA-His protein (monkey); experiment: ELISA, coated monkey BCMA-His, antibody 0.1 nM
[19] = target: monkey BCMA-His protein (monkey); experiment: ELISA, coated monkey BCMA-His, antibody 100 nM
[20] = target: human BCMA-His protein (human) (UniProt Q02223); experiment: ELISA, coated human BCMA-His, antibody 0.001 nM
[21] = target: monkey BCMA-His protein (monkey); experiment: ELISA, coated monkey BCMA-His, antibody 0.01 nM
[22] = target: human BCMA-His protein (human) (UniProt Q02223); experiment: ELISA, coated human BCMA-His, antibody 0.0001 nM
[23] = target: monkey BCMA-His protein (monkey); experiment: ELISA, coated monkey BCMA-His, antibody 0.001 nM
[24] = target: monkey BCMA-His protein (monkey); experiment: ELISA, coated monkey BCMA-His, antibody 0.0001 nM

human BCMA on cells (human), sequence (Q02223 whole entry): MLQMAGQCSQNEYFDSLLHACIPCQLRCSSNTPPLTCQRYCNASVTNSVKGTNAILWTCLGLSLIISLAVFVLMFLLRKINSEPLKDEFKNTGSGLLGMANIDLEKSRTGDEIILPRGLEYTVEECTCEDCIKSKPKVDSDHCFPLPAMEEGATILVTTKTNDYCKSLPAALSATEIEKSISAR

Maximum mean fluorescence intensity [1]: 110 MFI | Maximum mean fluorescence intensity [2]: 103 MFI | Maximum mean fluorescence intensity [3]: 99 MFI and 91 MFI and 167 MFI | Maximum mean fluorescence intensity [4]: 108 MFI and 111 MFI and 119 MFI | Maximum mean fluorescence intensity [5]: 121 MFI | Maximum mean fluorescence intensity [6]: 124 MFI | Maximum mean fluorescence intensity [7]: 93 MFI | Maximum mean fluorescence intensity [8]: 149 MFI | Cell mean fluorescence density [9]: 54.6 MFI | Cell mean fluorescence density [10]: 49 MFI | OD450 nm [11]: 0.05 OD450 nm | OD450 nm [12]: 0.07 OD450 nm | OD450 nm [13]: 0.05 OD450 nm | OD450 nm [14]: 0.05 OD450 nm | OD450 nm [15]: 0.12 OD450 nm | OD450 nm [16]: 0.06 OD450 nm | OD450 nm [17]: 0.05 OD450 nm | OD450 nm [18]: 0.05 OD450 nm | OD450 nm [19]: 0.1 OD450 nm | OD450 nm [20]: 0.05 OD450 nm | OD450 nm [21]: 0.04 OD450 nm | OD450 nm [22]: 0.05 OD450 nm | OD450 nm [23]: 0.05 OD450 nm | OD450 nm [24]: 0.05 OD450 nm
Substance: anti-hel-hlgG1 (negative control antibody against hen egg lysozyme)
